Source: patent US20200129634A1
Non-standard residues stand in square brackets, D forms with d. No end group written: not given here.

Tests used:
human serum proteins = assay: cell-based or functional assay
D36 (D40(A13K/A16K)) = assay: RP-HPLC temperature profiling 5-77 C, pH 2, self-association (dimerization/oligomerization) relative to random coil control RC
D34 (D38(A13K/A16K)) = assay: as above
D35 (D39(A13K/A16K)) = assay: as above
D84 (D33(A1K)) [1] = assay: RP-HPLC temperature profiling (0.25% B/min gradient), Mix 1, self-association relative to RC
D84 (D33(A1K)) [2] = assay: RP-HPLC temperature profiling (0.25% B/min gradient), Mix 2, self-association relative to RC
D84 (D33(A1K)) [3] = assay: RP-HPLC temperature profiling (0.25% B/min gradient), Mix 3, self-association relative to RC
D84 (D33(A1K)) [4] = assay: RP-HPLC temperature profiling (0.25% B/min gradient), Mix 4, self-association relative to RC

B1: D36 (D40(A13K/A16K)) (peptide)
peptide: [dA][dL][dA][dS][dL][dL][dK][dT][dL][dS][dK][dA][dK][dK][dK][dK][dL][dK][dT][dL][dL][dK][dA][dL][dS][dA]-NH2
modifications: N-terminus assumed
SMILES: CC(C)C[C@@H](NC(=O)[C@@H](C)N)C(=O)N[C@H](C)C(=O)N[C@H](CO)C(=O)N[C@H](CC(C)C)C(=O)N[C@H](CC(C)C)C(=O)N[C@H](CCCCN)C(=O)N[C@@H](C(=O)N[C@H](CC(C)C)C(=O)N[C@H](CO)C(=O)N[C@H](CCCCN)C(=O)N[C@H](C)C(=O)N[C@H](CCCCN)C(=O)N[C@H](CCCCN)C(=O)N[C@H](CCCCN)C(=O)N[C@H](CCCCN)C(=O)N[C@H](CC(C)C)C(=O)N[C@H](CCCCN)C(=O)N[C@@H](C(=O)N[C@H](CC(C)C)C(=O)N[C@H](CC(C)C)C(=O)N[C@H](CCCCN)C(=O)N[C@H](C)C(=O)N[C@H](CC(C)C)C(=O)N[C@H](CO)C(=O)N[C@H](C)C(N)=O)[C@H](C)O)[C@H](C)O
Human serum proteins
  MIC against A. baumannii strain 649 in 25% human serum (no serum: 0.4): 0.7 µM
D36 (D40(A13K/A16K))
  PA (self-association parameter): 5.6 min

B2: D34 (D38(A13K/A16K)) (peptide)
peptide: [dA][dL][dK][dS][dL][dL][dK][dT][dL][dS][dA][dA][dK][dK][dK][dK][dL][dA][dT][dL][dL][dK][dA][dL][dS][dK]-NH2
modifications: N-terminus assumed
SMILES: CC(C)C[C@@H](NC(=O)[C@@H](C)N)C(=O)N[C@H](CCCCN)C(=O)N[C@H](CO)C(=O)N[C@H](CC(C)C)C(=O)N[C@H](CC(C)C)C(=O)N[C@H](CCCCN)C(=O)N[C@@H](C(=O)N[C@H](CC(C)C)C(=O)N[C@H](CO)C(=O)N[C@H](C)C(=O)N[C@H](C)C(=O)N[C@H](CCCCN)C(=O)N[C@H](CCCCN)C(=O)N[C@H](CCCCN)C(=O)N[C@H](CCCCN)C(=O)N[C@H](CC(C)C)C(=O)N[C@H](C)C(=O)N[C@@H](C(=O)N[C@H](CC(C)C)C(=O)N[C@H](CC(C)C)C(=O)N[C@H](CCCCN)C(=O)N[C@H](C)C(=O)N[C@H](CC(C)C)C(=O)N[C@H](CO)C(=O)N[C@H](CCCCN)C(N)=O)[C@H](C)O)[C@H](C)O
Human serum proteins
  MIC against A. baumannii strain 649 in 25% human serum (no serum: 0.2): 1.4 µM
D34 (D38(A13K/A16K))
  PA (self-association parameter): 5.7 min

B3: D35 (D39(A13K/A16K)) (peptide)
peptide: [dA][dL][dK][dS][dL][dL][dA][dT][dL][dS][dK][dA][dK][dK][dK][dK][dL][dK][dT][dL][dL][dA][dA][dL][dS][dK]-NH2
modifications: N-terminus assumed
SMILES: CC(C)C[C@@H](NC(=O)[C@@H](C)N)C(=O)N[C@H](CCCCN)C(=O)N[C@H](CO)C(=O)N[C@H](CC(C)C)C(=O)N[C@H](CC(C)C)C(=O)N[C@H](C)C(=O)N[C@@H](C(=O)N[C@H](CC(C)C)C(=O)N[C@H](CO)C(=O)N[C@H](CCCCN)C(=O)N[C@H](C)C(=O)N[C@H](CCCCN)C(=O)N[C@H](CCCCN)C(=O)N[C@H](CCCCN)C(=O)N[C@H](CCCCN)C(=O)N[C@H](CC(C)C)C(=O)N[C@H](CCCCN)C(=O)N[C@@H](C(=O)N[C@H](CC(C)C)C(=O)N[C@H](CC(C)C)C(=O)N[C@H](C)C(=O)N[C@H](C)C(=O)N[C@H](CC(C)C)C(=O)N[C@H](CO)C(=O)N[C@H](CCCCN)C(N)=O)[C@H](C)O)[C@H](C)O
Human serum proteins
  MIC against A. baumannii strain 649 in 25% human serum (no serum: 0.4): 1.4 µM
D35 (D39(A13K/A16K))
  PA (self-association parameter): 5.5 min

B4: D84 (D33(A1K)) (peptide)
peptide: Ac-KLKSLLKTLSKAKAAKLKTLLKALSK-NH2
modifications: not fully specified; also: D-enantiomeric residues, extent not given here
D84 (D33(A1K)) [1]
  PA (self-association parameter): 6.8 min
D84 (D33(A1K)) [2]
  PA (self-association parameter): 6.8 min
D84 (D33(A1K)) [3]
  PA (self-association parameter): 6.8 min
D84 (D33(A1K)) [4]
  PA (self-association parameter): 6.8 min
